Strand notation (5' to 3'): a small letter for the sugar, then the base; units joined by * are phosphorothioate-linked, units joined directly phosphodiester-linked; [ ] holds rarer units or linkages, { } end groups; capitals alone tell only the bases. m = 2'-O-methyl; r = 2'-OH (RNA)
B1: G000495: TTR sgRNA modified sequence, Human, SEQ ID No. 102; guide sequence of CR003343 (nucleic acid)
guide: mC*mA*mG*rArGrGrArCrArCrUrUrGrGrArUrUrCrArCrGrUrUrUrUrArGrAmGmCmUmAmGmAmAmAmUmAmGmCrArArGrUrUrArArArArUrArArGrGrCrUrArGrUrCrCrGrUrUrArUrCrAmAmCmUmUmGmAmAmAmAmAmGmUmGmGmCmAmCmCmGmAmGmUmCmGmGmUmGmCmU*mU*mU*mU
B2: G000496: TTR sgRNA modified sequence, Human, SEQ ID No. 103; guide sequence of CR005304 (nucleic acid)
guide: mG*mG*mC*rCrGrUrGrCrArUrGrUrGrUrUrCrArGrArArGrUrUrUrUrArGrAmGmCmUmAmGmAmAmAmUmAmGmCrArArGrUrUrArArArArUrArArGrGrCrUrArGrUrCrCrGrUrUrArUrCrAmAmCmUmUmGmAmAmAmAmAmGmUmGmGmCmAmCmCmGmAmGmUmCmGmGmUmGmCmU*mU*mU*mU
B3: G000502: TTR Cyno specific sgRNA modified sequence, SEQ ID No. 114; guide sequence of CR000689; cross homologous between mouse and cyno (nucleic acid)
guide: mA*mC*mA*rCrArArArUrArCrCrArGrUrCrCrArGrCrGrGrUrUrUrUrArGrAmGmCmUmAmGmAmAmAmUmAmGmCrArArGrUrUrArArArArUrArArGrGrCrUrArGrUrCrCrGrUrUrArUrCrAmAmCmUmUmGmAmAmAmAmAmGmUmGmGmCmAmCmCmGmAmGmUmCmGmGmUmGmCmU*mU*mU*mU
B4: G000567: TTR sgRNA modified sequence, Human, SEQ ID No. 109; guide sequence of CR003352 (nucleic acid)
guide: mG*mA*mA*rArGrGrCrUrGrCrUrGrArUrGrArCrArCrCrGrUrUrUrUrArGrAmGmCmUmAmGmAmAmAmUmAmGmCrArArGrUrUrArArArArUrArArGrGrCrUrArGrUrCrCrGrUrUrArUrCrAmAmCmUmUmGmAmAmAmAmAmGmUmGmGmCmAmCmCmGmAmGmUmCmGmGmUmGmCmU*mU*mU*mU
B5: G000487: TTR sgRNA modified sequence, Human, SEQ ID No. 94; guide sequence of CR003357 (nucleic acid)
guide: mU*mU*mC*rUrUrUrGrGrCrArArCrUrUrArCrCrCrArGrGrUrUrUrUrArGrAmGmCmUmAmGmAmAmAmUmAmGmCrArArGrUrUrArArArArUrArArGrGrCrUrArGrUrCrCrGrUrUrArUrCrAmAmCmUmUmGmAmAmAmAmAmGmUmGmGmCmAmCmCmGmAmGmUmCmGmGmUmGmCmU*mU*mU*mU
B6: G000492: TTR sgRNA modified sequence, Human, SEQ ID No. 99; guide sequence of CR003342 (nucleic acid)
guide: mC*mU*mU*rCrUrCrUrArCrArCrCrCrArGrGrGrCrArCrGrUrUrUrUrArGrAmGmCmUmAmGmAmAmAmUmAmGmCrArArGrUrUrArArArArUrArArGrGrCrUrArGrUrCrCrGrUrUrArUrCrAmAmCmUmUmGmAmAmAmAmAmGmUmGmGmCmAmCmCmGmAmGmUmCmGmGmUmGmCmU*mU*mU*mU
B7: G000501: TTR sgRNA modified sequence, Human, SEQ ID No. 108; guide sequence of CR005300 (nucleic acid)
guide: mU*mC*mA*rCrArGrArArArCrArCrUrCrArCrCrGrUrArGrUrUrUrUrArGrAmGmCmUmAmGmAmAmAmUmAmGmCrArArGrUrUrArArArArUrArArGrGrCrUrArGrUrCrCrGrUrUrArUrCrAmAmCmUmUmGmAmAmAmAmAmGmUmGmGmCmAmCmCmGmAmGmUmCmGmGmUmGmCmU*mU*mU*mU
B8: G000497: TTR sgRNA modified sequence, Human, SEQ ID No. 104; guide sequence of CR003335 (nucleic acid)
guide: mC*mU*mG*rCrUrCrCrUrCrCrUrCrUrGrCrCrUrUrGrCrGrUrUrUrUrArGrAmGmCmUmAmGmAmAmAmUmAmGmCrArArGrUrUrArArArArUrArArGrGrCrUrArGrUrCrCrGrUrUrArUrCrAmAmCmUmUmGmAmAmAmAmAmGmUmGmGmCmAmCmCmGmAmGmUmCmGmGmUmGmCmU*mU*mU*mU
B9: G000485: TTR sgRNA modified sequence, Human, SEQ ID No. 92; guide sequence of CR003336 (nucleic acid)
guide: mC*mC*mU*rCrCrUrCrUrGrCrCrUrUrGrCrUrGrGrArCrGrUrUrUrUrArGrAmGmCmUmAmGmAmAmAmUmAmGmCrArArGrUrUrArArArArUrArArGrGrCrUrArGrUrCrCrGrUrUrArUrCrAmAmCmUmUmGmAmAmAmAmAmGmUmGmGmCmAmCmCmGmAmGmUmCmGmGmUmGmCmU*mU*mU*mU
B10: G000491: TTR sgRNA modified sequence, Human, SEQ ID No. 98; guide sequence of CR003338 (nucleic acid)
guide: mA*mU*mA*rCrCrArGrUrCrCrArGrCrArArGrGrCrArGrGrUrUrUrUrArGrAmGmCmUmAmGmAmAmAmUmAmGmCrArArGrUrUrArArArArUrArArGrGrCrUrArGrUrCrCrGrUrUrArUrCrAmAmCmUmUmGmAmAmAmAmAmGmUmGmGmCmAmCmCmGmAmGmUmCmGmGmUmGmCmU*mU*mU*mU
B11: G000498: TTR sgRNA modified sequence, Human, SEQ ID No. 105; guide sequence of CR003359 (nucleic acid)
guide: mA*mG*mU*rGrArGrUrCrUrGrGrArGrArGrCrUrGrCrArGrUrUrUrUrArGrAmGmCmUmAmGmAmAmAmUmAmGmCrArArGrUrUrArArArArUrArArGrGrCrUrArGrUrCrCrGrUrUrArUrCrAmAmCmUmUmGmAmAmAmAmAmGmUmGmGmCmAmCmCmGmAmGmUmCmGmGmUmGmCmU*mU*mU*mU

How the values were obtained:
TTR = TTR editing in primary human hepatocytes transfected with Spy Cas9 protein and sgRNAs (Table 12); assay type: cell-based; conditions: primary human hepatocytes transfected with Spy Cas9 protein (RNP) and sgRNAs
Description: Primary liver hepatocytes. Primary human liver hepatocytes (PHH) and primary cynomolgus liver hepatocytes (PCH) (Gibco) were cultured per the manufacturer's protocol (Invitrogen, protocol 11.28.2012). In brief, the cells were thawed and resuspended in hepatocyte thawing medium with supplements (Gibco, Cat. CM7000) followed by centrifugation at 100 g for 10 minutes for human and 80 g for 4 minutes for cyno. The supernatant was discarded and the pelleted cells resuspended in hepatocyte plating medium plus supplement pack (Invitrogen, Cat. A1217601 and CM3000). Cells were counted and plated on Bio-coat collagen I coated 96-well plates (ThermoFisher, Cat. 877272) at a density of 33,000 cells/well for human or 60,000 cells/well for cyno (or 65,000 cells/well when assaying effects on TTR protein, described further below). Plated cells were allowed to settle and adhere for 6 or 24 hours in a tissue culture incubator at 37° C. and 5% CO2 atmosphere. After incubation cells were checked for monolayer formation and media was replaced with hepatocyte culture medium with serum-free supplement pack (Invitrogen, Cat. A1217601 and CM4000).
[…] formation was performed prior to electroporation or transfection of Spy Cas9 protein loaded with guide RNAs (RNPs) onto cells. For dual guide (dgRNAs), individual crRNA and trRNA was pre-annealed by mixing equivalent amounts of reagent and incubating at 95° C. for 2 min and cooling to room temperature. Single guide (sgRNAs) were boiled at 95° C. for 2 min and cooling to room temperature. The boiled dgRNA or sgRNA was incubated with Spy Cas9 protein in Optimem for 10 minutes at room temperature to form a ribonucleoprotein (RNP) complex.
For RNP lipoplex transfections, cells were transfected with Lipofectamine RNAiMAX (ThermoFisher, Cat. 13778150) per the manufacturer's protocol. Cells were transfected with an RNP containing Spy Cas9 (10 nM), individual guide (10 nM), tracer RNA (10 nM), Lipofectamine RNAiMAX (1.0 μL/well) and OptiMem. RNP formation was performed as described above.
Transfected cells were harvested post-transfection at 24, 48, or 72 hours. The genomic DNA was extracted from each well of a 96-well plate using 50 μL/well BuccalAmp DNA Extraction solution (Epicentre, Cat. QE09050) per manufacturer's protocol. All DNA samples were subjected to PCR and subsequent NGS analyses, as described herein.
To quantitatively determine the efficiency of editing at the target location in the genome, sequencing was utilized to identify the presence of insertions and deletions introduced by gene editing.
Primers were designed around the target site within the gene of interest (e.g. TTR), and the genomic area of interest was amplified.
Additional PCR was performed per the manufacturer's protocols (Illumina) to add chemistry for sequencing. The amplicons were sequenced on an Illumina MiSeq instrument. The reads were aligned to a reference genome (e.g., the human reference genome (hg38), the cynomologus reference genome (mf5), the rat reference genome (rn6), or the mouse reference genome (mm10)) after eliminating those having low quality scores. The resulting files containing the reads were mapped to the reference genome (BAM files), where reads that overlapped the target region of interest were selected and the number of wild type reads versus the number of reads which contain an insertion, substitution, or deletion was calculated.
The editing percentage (e.g., the “editing efficiency” or “percent editing” or “indel frequency”) is defined as the total number of sequence reads with insertions/deletions (“indels”) or substitutions over the total number of sequence reads, including wild type.
Guides in modified sgRNA format targeting human and/or cyno TTR were delivered to primary human hepatocytes and primary cyno hepatocytes as described in Example 1. […]

TTR mRNA = TTR mRNA knockdown in primary human hepatocytes by quantitative PCR (Tables 34, 35); assay type: cell-based; conditions: TTR mRNA in PHH, 96 hours after treatment, vs untreated control
Description: In one experiment, PHH were cultured and treated with LNPs comprising Cas9 mRNA (SEQ ID NO:1) and a gRNA of interest (See FIG. 29, Table 34), as described in Example 4. The LNPs were prepared using the cross-flow procedure described above and purified and concentrated using PD-10 columns and Amicon centrifugal filter units, respectively. The LNPs were formulated with an N:P ratio of 6.0 and contained Lipid A, Cholesterol, DSPC, and PEG2k-DMG in a 50:38:9:2 molar ratio, respectively. The LNPs comprised a gRNA:mRNA ratio of 1:2, and the cells were treated at a dose of 300 ng (with respect to the amount of mRNA cargo delivered).
(§1) Ninety-six (96) hours following LNP treatment (with biological triplicates for each condition), mRNA was purified from PHH cells using the Dynabeads mRNA DIRECT Kit (ThermoFisher Scientific) according to the manufacturer's protocol. Reverse Transcription (RT) was performed with Maxima reverse transcriptase (ThermoFisher Scientific) and a poly-dT primer. The resulting cDNA was purified with Ampure XP Beads (Agencourt). For Quantitative PCR, 2% of the purified cDNA was amplified with Taqman Fast Advanced Mastermix and 3 Taqman probe sets, TTR (Assay ID: Hs00174914_m1), GAPDH (Assay ID: Hs02786624_g1), and PPIB (Assay ID: Hs00168719_m1). The assays were run on the QuantStudio 7 Flex Real Time PCR System according to the manufacturer's instructions (Life Technologies). Relative expression of TTR mRNA was calculated by normalizing to the endogenous controls (GAPDH and PPIB) individually, and then averaged.
In a separate experiment, TTR mRNA knockdown was evaluated following treatment with LNPs comprising G000480, G000486, and G000502. The LNPs were formulated and PHH were cultured and treated with the LNPs, each as described in the experiment above in this Example with the exception that the cells were treated at a dose of 100 ng (with respect to the amount of mRNA cargo delivered).
as §1, with “(single treatment” for “(with biological triplicates”, “the High Capacity cDNA Reverse Transcription Kit” for “Maxima reverse transcriptase”, “according to the manufacturer's instructions.” for “and a poly-dT primer. The resulting cDNA was purified with Ampure XP Beads (Agencourt).”, “the” for “the purified”

| Molecule | Avg % Deletion (TTR) [%] | Avg % Edit (TTR) [%] | Avg % Insert (TTR) [%] | Avg % Knockdown (TTR mRNA; LNP dose 100 ng mRNA cargo, separate experiment) [%] | Avg % Knockdown (TTR mRNA; LNP dose 300 ng mRNA cargo, gRNA:mRNA 1:2, biological triplicates) [%] |
| --- | --- | --- | --- | --- | --- |
| B1 | 5.37 | 50.80 | 45.80 | – | – |
| B2 | 27.67 | 72.33 | 44.73 | – | – |
| B3 | – | – | – | 90.94 | – |
| B4 | – | – | – | – | 90.89 |
| B5 | 2.07 | 67.30 | 65.27 | – | – |
| B6 | 3.13 | 60.97 | 57.90 | – | – |
| B7 | 6.00 | 60.93 | 55.13 | – | – |
| B8 | 8.73 | 59.67 | 51.10 | – | – |
| B9 | 3.13 | 56.07 | 53.07 | – | – |
| B10 | 4.33 | 74.30 | 70.27 | – | – |
| B11 | 12.70 | 72.80 | 60.17 | – | – |

Source: US11795460B2, “Compositions and methods for TTR gene editing and treating ATTR amyloidosis” (Intellia Therapeutics, Inc., priority 2017, dated 2023)
